One block for each binder: values may come before it.
Legend:
[1] = target: T1, MMP1-003 peptide/HLA-A2 complex (on MMP1-003 peptide-pulsed T2 cells or HLA-A2+/MMP1+ tumor cells) (human); test: cell-based or functional assay
[2] = target: T1, MMP1-003 peptide/HLA-A2 complex (on …); test: cell-based or functional assay; remark: listed apart in the source
[3] = target: T2, CD16A (FcgammaRIIIA) on primary human NK-cells (human, UniProt P08637 17-254); test: flow cytometry on primary human NK-cells, on ice, one-site binding fit, mean of two experiments
T2 construct: whole, on cells; also called CD16^+ NK-cells; CD16A^+ cells

[4] = target: T3, human CD3 (on Jurkat cells or primary human T-cells) (human, UniProt P07766 23-207); test: flow cytometry on human CD3+ Jurkat cells, on ice
T3 construct: whole, on cells; CD3 is a complex of several chains; also called Human CD3^+ Jurkat; Human CD3^+ primary T-cells

[5] = target: T4, cynomolgus CD3 (on HSC-F cells) (cynomolgus, UniProt Q95LI5 22-198); test: flow cytometry on cynomolgus CD3+ HSC-F cells, on ice
T4 construct: whole, on cells; CD3 is a complex of several chains; also called Cyno CD3^+ HSC-F

[6] = target: T1, MMP1-003 peptide/HLA-A2 complex (on …); test: flow cytometry on MMP1-003 peptide-pulsed T2 cells, mean of two experiments
[7] = target: T1, MMP1-003 peptide/HLA-A2 complex (on …); test: cell-based or functional assay; remark: listed apart in the source
[8] = target: T1, MMP1-003 peptide/HLA-A2 complex (on …); test: cell-based or functional assay; remark: listed apart in the source
[9] = target: T1, MMP1-003 peptide/HLA-A2 complex (on …); test: flow cytometry on MMP1-003 peptide-pulsed T2 cells
[10] = target: T5, HLA-A2 on non-pulsed T2 cells (no peptide added) (human); test: flow cytometry on non-pulsed T2 cells, mean of two experiments
T5 construct: whole, on cells

[11] = target: T3, human CD3 (on Jurkat cells or primary …); test: flow cytometry on human CD3+ Jurkat cells, on ice, one-site binding fit, mean of 2 experiments
[12] = target: T3, human CD3 (on Jurkat cells or primary …); test: flow cytometry on human CD3+ primary T-cells, on ice, one-site binding fit, mean of 2 experiments
[13] = target: T4, cynomolgus CD3 (on HSC-F cells); test: flow cytometry on cynomolgus CD3+ HSC-F cells, on ice, one-site binding fit, mean of 2 experiments

T2 sequence (P08637 17-254): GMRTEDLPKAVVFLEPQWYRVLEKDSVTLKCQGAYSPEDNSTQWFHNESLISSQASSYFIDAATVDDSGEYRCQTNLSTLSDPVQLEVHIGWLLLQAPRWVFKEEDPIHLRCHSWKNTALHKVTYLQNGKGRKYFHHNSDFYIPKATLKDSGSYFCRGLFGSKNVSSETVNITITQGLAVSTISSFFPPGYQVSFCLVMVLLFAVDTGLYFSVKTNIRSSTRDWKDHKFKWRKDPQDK
T3 sequence (P07766 23-207): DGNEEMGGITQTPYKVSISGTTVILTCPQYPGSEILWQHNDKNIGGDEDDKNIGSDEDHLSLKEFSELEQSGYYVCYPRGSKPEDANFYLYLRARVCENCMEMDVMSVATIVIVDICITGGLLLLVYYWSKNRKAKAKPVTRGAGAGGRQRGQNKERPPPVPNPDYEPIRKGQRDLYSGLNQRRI
T4 sequence (Q95LI5 22-198): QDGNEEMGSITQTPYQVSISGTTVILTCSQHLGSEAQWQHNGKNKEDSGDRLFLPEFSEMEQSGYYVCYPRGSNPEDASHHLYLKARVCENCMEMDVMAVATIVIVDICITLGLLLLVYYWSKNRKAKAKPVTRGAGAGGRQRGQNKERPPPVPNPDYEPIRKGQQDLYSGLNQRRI

Mean EC50 of target cell lysis, 4 h calcein-release assay, MMP1-003-pulsed T2 cells, human NK-cells E:T 5:1 [1]: 0.0088 nM
Mean EC50 of target cell lysis, 4 h calcein-release assay, B-CPAP (HLA-A2+/MMP1+), human NK-cells E:T 5:1 [2]: 4.8 nM
Mean EC50 of target cell lysis, 4 h calcein-release assay, SW-982 (HLA-A2+/MMP1+), human NK-cells E:T 5:1 [2]: 4.67 nM
Kd [3]: 5.3 nM
B1: TandAbCD16A 4 (anti-HLA-A2^MMP1-003/CD16A tandem diabody, target domain B05, variant 4) (bispecific antibody)
chain: QVQLVQSGAEAKKPGESLRISCRASGYMFSTFWIGWVRQMPGKGLEWVASIYPGDSNTIYSPSFQGQVTISADKSINTTYLQWSGLKASDTATYYCAKIRDGYSYDAFDLWGQGTMVTVSSGGSGGSGGSSYVLTQPSSVSVAPGQTATISCGGHNIGSKNVHWYQQRPGQSPVLVIYQDNKRPSGIPERFSGSNSGNTATLTISGTQAMDEADYYCQVWDNYSVLFGGGTKLTVLGGSGGSQVQLVQSGAEVKKPGESLKVSCKASGYTFTSYYMHWVRQAPGQGLEWMGAIEPMYGSTSYAQKFQGRVTMTRDTSTSTVYMELSSLRSEDTAVYYCARGSAYYYDFADYWGQGTLVTVSSGGSGGSGGSQSALTQPASVSGSPGQSITISCTGTSSDVGGYNYVSWYQQHPGKAPKLMIYDVSNRPSGVSNRFSGSKSGNTASLTISGLQAEDEADYYCSSYTSSSTLAYVFGTGTKLTVLAAAGSHHHHHH
notes: Non-covalent homodimer; C-terminal 6xHis tag

binding result [4]: no binding
binding result [5]: no binding
Kd [6]: 108 nM
B2: scFv A02 (anti-HLA-A2^MMP1-003 single chain Fv) (scFv)
scFv: EVQLVESGGGVVQPGRSLRLSCAASGFTFSSYAMHWVRQAPGKGLEWVAVISYDGSNKYYADSVKGRFTISRDNSKNTLYLQMNSLRTEDTAVYYCARDGGYYHYGLDVWGQGTTVTVSSGGSGGSGGSGGSGGSGGSSYELTQPPSVSVSPGQTASITCSGDKLGDKYASWYQRKPGQSPVLLIYQDAKRPSGIPERFSGSNSGNTATLTISGTQAMDEADYYCQAWDSSTGVFGGGTKLTVLAAAGSEQKLISEEDLNSHHHHHH
notes: also called A02 scFv; scFv_203.S

Mean EC50 of target cell lysis, 4 h calcein-release assay, MMP1-003-pulsed T2 cells, human NK-cells E:T 5:1 [1]: 0.0057 nM
Mean EC50 of target cell lysis, 4 h calcein-release assay, B-CPAP (HLA-A2+/MMP1+), human NK-cells E:T 5:1 [2]: 0.996 nM
Mean EC50 of target cell lysis, 4 h calcein-release assay, SW-982 (HLA-A2+/MMP1+), human NK-cells E:T 5:1 [2]: 1.16 nM
Kd [3]: 3.1 nM
B4: TandAbCD16A 3 (anti-HLA-A2^MMP1-003/CD16A tandem diabody, target domain A02, variant 4) (bispecific antibody)
chain: EVQLVESGGGVVQPGRSLRLSCAASGFTFSSYAMHWVRQAPGKGLEWVAVISYDGSNKYYADSVKGRFTISRDNSKNTLYLQMNSLRTEDTAVYYCARDGGYYHYGLDVWGQGTTVTVSSGGSGGSGGSSYVLTQPSSVSVAPGQTATISCGGHNIGSKNVHWYQQRPGQSPVLVIYQDNKRPSGIPERFSGSNSGNTATLTISGTQAMDEADYYCQVWDNYSVLFGGGTKLTVLGGSGGSQVQLVQSGAEVKKPGESLKVSCKASGYTFTSYYMHWVRQAPGQGLEWMGAIEPMYGSTSYAQKFQGRVTMTRDTSTSTVYMELSSLRSEDTAVYYCARGSAYYYDFADYWGQGTLVTVSSGGSGGSGGSSYELTQPPSVSVSPGQTASITCSGDKLGDKYASWYQRKPGQSPVLLIYQDAKRPSGIPERFSGSNSGNTATLTISGTQAMDEADYYCQAWDSSTGVFGGGTKLTVLAAAGSHHHHHH
notes: Non-covalent homodimer; Variant 4: VH(A02)-L1-VL(CD16A)-L2-VH(CD16A)-L3-VL(A02); C-terminal 6xHis tag

binding result [4]: no binding
binding result [5]: no binding
Kd [6]: 616 nM
B8: scFv B05 (anti-HLA-A2^MMP1-003 single chain Fv) (scFv)
scFv: QVQLVQSGAEAKKPGESLRISCRASGYMFSTFWIGWVRQMPGKGLEWVASIYPGDSNTIYSPSFQGQVTISADKSINTTYLQWSGLKASDTATYYCAKIRDGYSYDAFDLWGQGTMVTVSSGGSGGSGGSGGSGGSGGSQSALTQPASVSGSPGQSITISCTGTSSDVGGYNYVSWYQQHPGKAPKLMIYDVSNRPSGVSNRFSGSKSGNTASLTISGLQAEDEADYYCSSYTSSSTLAYVFGTGTKLTVLAAAGSEQKLISEEDLNSHHHHHH
notes: also called B05 scFv; scFv_202.S

Further lines, the binder ahead of its results:

B3: TandAbCD3 2 (anti-HLA-A2^MMP1-003/CD3 tandem diabody, target domain A02) (bispecific antibody)
chain: DIQMTQSPSSLSASVGDRVTITCRSSTGAVTTSNYANWVQQKPGKAPKALIGGTNKRAPGVPSRFSGSLIGDKATLTISSLQPEDFATYYCALWYSNLWVFGQGTKVEIKGGSGGSEVQLVESGGGVVQPGRSLRLSCAASGFTFSSYAMHWVRQAPGKGLEWVAVISYDGSNKYYADSVKGRFTISRDNSKNTLYLQMNSLRTEDTAVYYCARDGGYYHYGLDVWGQGTTVTVSSGGSGSYELTQPPSVSVSPGQTASITCSGDKLGDKYASWYQRKPGQSPVLLIYQDAKRPSGIPERFSGSNSGNTATLTISGTQAMDEADYYCQAWDSSTGVFGGGTKLTVLGGSGGSEVQLVESGGGLVQPGGSLRLSCAASGFTFSTYAMNWVRQAPGKGLEWVGRIRSKYNNYATYYADSVKDRFTISRDDSKNSLYLQMNSLKTEDTAVYYCARHGNFGNSYVSYFAYWGQGTLVTVSSAAAGSHHHHHH
notes: Non-covalent homodimer; C-terminal 6xHis tag; also called TandAbCD3 2 T717; T717
EC50 of target cell lysis, 4 h calcein-release cytotoxicity assay, MMP1-003-pulsed T2 cells, human T-cells E:T 25:1 [7]: 0.0009 nM
Mean EC50 of target cell lysis, 4 h calcein-release assay, B-CPAP (HLA-A2+/MMP1+), human T-cells E:T 25:1 [8]: 0.0669 nM
Mean EC50 of target cell lysis, 4 h calcein-release assay, SW-982 (HLA-A2+/MMP1+), human T-cells E:T 25:1 [8]: 0.0302 nM
fold higher apparent affinity than the corresponding scFv A02 [9]: > 2 fold
Kd [10]: > 500 nM
Kd [6]: 39.2 nM
Kd [11]: 3.6 nM
Kd [12]: 2.2 nM
Kd [13]: 2.8 nM

B5: TandAbCD16A 1 (anti-HLA-A2^MMP1-003/CD16A tandem diabody, target domain A02, variant 2) (bispecific antibody)
chain: QVQLVQSGAEVKKPGESLKVSCKASGYTFTSYYMHWVRQAPGQGLEWMGAIEPMYGSTSYAQKFQGRVTMTRDTSTSTVYMELSSLRSEDTAVYYCARGSAYYYDFADYWGQGTLVTVSSGGSGGSGGSSYELTQPPSVSVSPGQTASITCSGDKLGDKYASWYQRKPGQSPVLLIYQDAKRPSGIPERFSGSNSGNTATLTISGTQAMDEADYYCQAWDSSTGVFGGGTKLTVLGGSGGSEVQLVESGGGVVQPGRSLRLSCAASGFTFSSYAMHWVRQAPGKGLEWVAVISYDGSNKYYADSVKGRFTISRDNSKNTLYLQMNSLRTEDTAVYYCARDGGYYHYGLDVWGQGTTVTVSSGGSGGSGGSSYVLTQPSSVSVAPGQTATISCGGHNIGSKNVHWYQQRPGQSPVLVIYQDNKRPSGIPERFSGSNSGNTATLTISGTQAMDEADYYCQVWDNYSVLFGGGTKLTVLAAAGSHHHHHH
notes: Non-covalent homodimer; Variant 2: VH(CD16A)-L1-VL(A02)-L2-VH(A02)-L3-VL(CD16A); C-terminal 6xHis tag
Mean EC50 of target cell lysis, 4 h calcein-release assay, MMP1-003-pulsed T2 cells, human NK-cells E:T 5:1 [1]: 0.0147 nM
Mean EC50 of target cell lysis, 4 h calcein-release assay, B-CPAP (HLA-A2+/MMP1+), human NK-cells E:T 5:1 [2]: 2.61 nM
Mean EC50 of target cell lysis, 4 h calcein-release assay, SW-982 (HLA-A2+/MMP1+), human NK-cells E:T 5:1 [2]: 4.29 nM
Kd [3]: 5.1 nM

B6: TandAbCD16A 2 (anti-HLA-A2^MMP1-003/CD16A tandem diabody, target domain B05, variant 2) (bispecific antibody)
chain: QVQLVQSGAEVKKPGESLKVSCKASGYTFTSYYMHWVRQAPGQGLEWMGAIEPMYGSTSYAQKFQGRVTMTRDTSTSTVYMELSSLRSEDTAVYYCARGSAYYYDFADYWGQGTLVTVSSGGSGGSGGSQSALTQPASVSGSPGQSITISCTGTSSDVGGYNYVSWYQQHPGKAPKLMIYDVSNRPSGVSNRFSGSKSGNTASLTISGLQAEDEADYYCSSYTSSSTLAYVFGTGTKLTVLGGSGGSQVQLVQSGAEAKKPGESLRISCRASGYMFSTFWIGWVRQMPGKGLEWVASIYPGDSNTIYSPSFQGQVTISADKSINTTYLQWSGLKASDTATYYCAKIRDGYSYDAFDLWGQGTMVTVSSGGSGGSGGSSYVLTQPSSVSVAPGQTATISCGGHNIGSKNVHWYQQRPGQSPVLVIYQDNKRPSGIPERFSGSNSGNTATLTISGTQAMDEADYYCQVWDNYSVLFGGGTKLTVLAAAGSHHHHHH
notes: as for B1
Mean EC50 of target cell lysis, 4 h calcein-release assay, MMP1-003-pulsed T2 cells, human NK-cells E:T 5:1 [1]: 0.0209 nM
Mean EC50 of target cell lysis, 4 h calcein-release assay, B-CPAP (HLA-A2+/MMP1+), human NK-cells E:T 5:1 [2]: 1.69 nM
Mean EC50 of target cell lysis, 4 h calcein-release assay, SW-982 (HLA-A2+/MMP1+), human NK-cells E:T 5:1 [2]: 2.86 nM
Kd [3]: 3.7 nM

B7: TandAbCD3 1 (anti-HLA-A2^MMP1-003/CD3 tandem diabody, target domain B05) (bispecific antibody)
chain: DIQMTQSPSSLSASVGDRVTITCRSSTGAVTTSNYANWVQQKPGKAPKALIGGTNKRAPGVPSRFSGSLIGDKATLTISSLQPEDFATYYCALWYSNLWVFGQGTKVEIKGGSGGSQVQLVQSGAEAKKPGESLRISCRASGYMFSTFWIGWVRQMPGKGLEWVASIYPGDSNTIYSPSFQGQVTISADKSINTTYLQWSGLKASDTATYYCAKIRDGYSYDAFDLWGQGTMVTVSSGGSGQSALTQPASVSGSPGQSITISCTGTSSDVGGYNYVSWYQQHPGKAPKLMIYDVSNRPSGVSNRFSGSKSGNTASLTISGLQAEDEADYYCSSYTSSSTLAYVFGTGTKLTVLGGSGGSEVQLVESGGGLVQPGGSLRLSCAASGFTFSTYAMNWVRQAPGKGLEWVGRIRSKYNNYATYYADSVKDRFTISRDDSKNSLYLQMNSLKTEDTAVYYCARHGNFGNSYVSYFAYWGQGTLVTVSSAAAGSHHHHHH
notes: Non-covalent homodimer of two identical polypeptides; Constructs carry a C-terminal 6xHis tag and an N-terminal signal peptide; also called TandAbCD3 1 T714; TandAb 1
EC50 of target cell lysis, 4 h calcein-release cytotoxicity assay, MMP1-003-pulsed T2 cells, human T-cells E:T 25:1 [7]: 0.0007 nM
Mean EC50 of target cell lysis, 4 h calcein-release assay, B-CPAP (HLA-A2+/MMP1+), human T-cells E:T 25:1 [8]: 0.237 nM
Mean EC50 of target cell lysis, 4 h calcein-release assay, SW-982 (HLA-A2+/MMP1+), human T-cells E:T 25:1 [8]: 0.156 nM
fold higher apparent affinity relative to the B05 single chain Fv (scFv) [9]: > 200 fold
Kd [6]: 3 nM
Kd [11]: 1.1 nM
Kd [12]: 1.7 nM
Kd [13]: 1.3 nM

Reference: patent publication EP3366704A1 (Affimed GmbH, dated 2018)
